Peptide text beside a SMILES is read from it.
Assays:
human monocytes [1] = test: Viability of cultured cells with IT9302; type: cell-based; conditions: any concentration of IT9302 between 0.1 and 1000 ng/ml; viability always exceeded 80% after 1 day in culture
human monocytes [2] = test: Class II MHC (HLA-DR) antigen expression on IFN-γ stimulated human monocytes, flow cytometry; type: cell-based; conditions: 10 ng/ml rhIL-10 before IFN-γ 10 ng/ml, 40 hours; unstimulated 36.8%, IFN-γ alone 58.4%
Procedure: HLA-DR expression on human monocytes. The monocytes were isolated from fresh, heparinized blood by adherence to plastic at 37° C. in RPMI 1640 containing 10% FCS. After incubation, the supernatant was removed, Hank's solution (4° C. with 1% FCS) was added, and the cells were detached by cooling at […] for 15 minutes and gentle banging to the table. Monocytes were stimulated (2×10^6 cells/ml) in RPMI 1640 added 2% FCS, with IFN-γ (10 ng/ml), or rhIL-10 (100, 10, 1 ng/ml) added before IFN-γ, or IT9302 (10, 1, 0.1 ng/ml) added before IFN-γ for 40 hours. The cells were detached from the wells by cooling as before. Fresh, non-fixed cells were used for surface typing by antihuman antibody for HLA-DR. The cells were resuspended in Hank's solution with 1% FCS, 1×10^6 cells/ml and FITC conjugated mouse-anti-human HLA DR, DP, […] antibodies were added (F 0817, DAKO Denmark) for 45 minutes. The cells were washed three times in Hank's solution and a FACS analysis was performed on a Coulter-Epics XL-MCL flow cytometer at a wavelength of 488 nm. Non-specific binding was determined with a non-relevant Fitch conjugated antibody (mouse anti goat DAKO F 479).
The monocytes were purified as described above and stimulated for 40 hours by IFN-γ (10 ng/ml) and/or rhIL-10 and/or IT9302 added 30 minutes before IFN-γ. […]

[3] = test system: normal human CD4+ T cells; test: IL-4 production by cultured CD4+ T lymphocytes, ECL-Western blotting; type: cell-based; conditions: IT9302 10 ng/ml or IL-10 100 ng/ml, 3 days, cytosolic fractions
Procedure: CD4+ T lymphocytes were purified from heparinized normal human blood. Following Lymphoprep™ (Nycomed Pharma, Oslo, Norway) gradient centrifugation, the mononuclear cells were further sorted at 4° C. using Dynabeads (Dynal AS, Norway) coated with monoclonal anti-CD4 antibodies. The beads were detached by adding polyclonal anti-mouse antibody (Dynal AS, Norway). The purity of the positively selected cells were higher than 99% as judged by FACS analysis. […]
Cells or freeze-dried cell culture supernatants were used for IL-4 protein content determination. […] The blots were then incubated with a polyclonal goat anti-human IL-4 antibody (R&D Systems, UK) followed by a horseradish peroxidase-labelled secondary antibody (Cat. no. RPN 2106 ECL, Amersham, UK), and the immunostaining was detected by exposing a film (Kodak X-OMAT-S, USA) for 90 seconds.
Thus, CD4+ T cells, purified as described in “Methods for T cell chemotaxis”, and cultured as described in the section “Determination of IL-4 production by CD4+ T lymphocytes”, were stimulated for 3 days with IT9302 (10 ng/ml) or IL-10 (100 ng/ml). Cytosolic fractions were collected and analyzed for their IL-4 content using Western blotting (FIG. 9) and a goat anti-human IL-4 polyclonal antibody.

human monocytes [4] = test: Determination of apoptosis in monocytes (DNA typing, propidium iodide flow cytometry); type: cell-based; conditions: with IFN-γ stimulation; non-stimulated 6.6%, IFN-γ alone 4.1%
Procedure: Alternatively cells were fixed in 10% DMSO, 40% RPMI 1640 and 50% sterile FCS, and stored at −80° C. and used for DNA typing.
DNA typing of the stimulated monocytes. The fixed cells were incubated in 70 ethanol for 60 minutes and washed twice in Hank's solution. 1×10^6 cells were resuspended in 250 μl of RNase 1 μg/ml in 1.12% sodium citrate, pH 8.4 (Ribonuclease A, Pharmacia No. 17-0442-01) and incubated at 37° C. for 3 minutes. Thereafter, 250 μl of propidiumiodide (50 μg/ml in Hank's solution) was added, and cells were incubated in the dark for 30 minutes. After this the cells were washed twice in Hank's solution (Jensen et al., (110)). The DNA content was measured by flow cytometry on a Coulter-Epics XL-MCL at a wavelength of 550 nm.
The IFN-γ stimulated monocytes from above were incubated with propidium iodide and the DNA content was measured by flow cytometry. The fraction of cells expressing DNA in G1 or G2 phase of cell proliferation was measured and also the fraction expressing apoptosis.

PBMCs = test: T cell proliferation, PHA stimulated PBMC, 3H-thymidine incorporation; type: cell-based, human; conditions: 72 hours, 3H-thymidine last 18 hours
Procedure: Proliferation assay. PBMCs (2×10^5) were cultivated in 200 μl of RPMI medium with 10% FCS for 72 hours with PHA 0.5 μl/ml and rhIL-10 (1, 10, 100 ng/ml) or IT9302 (0.1, 1, 10 ng/ml) in triplets. The last 18 hours ^3H-thymidine was added with 0.5 μCi/well (Amersham, Denmark). The cells were harvested on a filter (Glass Microfibre Filters, Whatman, Cat. No. 1822 849) and scintillation fluid (Ultima, Gold MV, Packard) was added. The scintillation counting was made on Tri-Carb model 1600 TR, Packard.
PBMC's were stimulated with PHA as described above and rhIL-10 and IT9302 were added for 72 hours, and the ^3H-thymidine incorporation was measured for the last 18 hours.

Molecule | effect on viability of cells (human monocytes [1]) | MHC II antigen expression in the cell population (human monocytes [2]) [%] | production of IL-4 by cultured normal human CD4+ T cells [3] | fraction of monocytes expressing apoptosis (human monocytes [4]) [%] | optimum concentration for downregulation of cell proliferation (PBMCs) [ng/mL]
CC[C@H](C)[C@H](NC(=O)[C@H](CCCCN)NC(=O)[C@H](CCSC)NC(=O)[C@@H](NC(=O)[C@H](CCSC)NC(=O)[C@H](Cc1ccc(O)cc1)NC(=O)[C@H](C)N)[C@@H](C)O)C(=O)N[C@@H](CCCNC(=N)N)C(=O)N[C@@H](CC(N)=O)C(=O)O [IT9302, NH2-Ala-Tyr-Met-Thr-Met-Lys-Ile-Arg-Asn-COOH] (H-AYMTMKIRN-OH) | did not in this or in the following examples affect viability |  |  |  | 
rhIL-10: recombinant human interleukin 10 obtained from Pepro Tech Inc. (protein) SPGQGTQSENSCTHFPGNLPNMLRDLRDAFSRVKTFFQMKDQLDNLLLKESLLEDFKGYLGCQALSEMIQFYLEEVMPQAENQDPDIKAHVNSLGENLKTLRLRLRRCHRFLPCENKSKAVEQVKNAFNKLQEKGIYKAMSEFDIFINYIEAYMTMKIRN |  | 25.2 | induce the production of IL-4 | 10.3 | 100
